Laboratory results from PMC7864068, “α2-Macroglobulin-like protein 1 can conjugate and inhibit proteases through their hydroxyl groups, because of an enhanced reactivity of its thiol ester” (The Journal of Biological Chemistry, 2021).
Substitutions are numbered along the chain they refer to. In names and notes the source's numbering stands.

Assays:
A2M (α2-macroglobulin) = target: T1, A2M (α2-macroglobulin) (Homo sapiens, UniProt P01023); assay: LC-MS/MS PRM of the pepsin-digested thiol ester peptide conjugate; assay type: biochemical; settings: covalent amide at thiol ester Gln-975; plasma-purified A2M activated by chymotrypsin; 200 mM glycine, HBS pH 7.4, 37 °C
T1 construct: WT purified from plasma; N1088H recombinant from HEK293 cells (gene based on mRNA M11311), native form enriched by LRP1 depletion; tetramer; cleaved by chymotrypsin in the assay
T1 sequence (P01023 24-1474): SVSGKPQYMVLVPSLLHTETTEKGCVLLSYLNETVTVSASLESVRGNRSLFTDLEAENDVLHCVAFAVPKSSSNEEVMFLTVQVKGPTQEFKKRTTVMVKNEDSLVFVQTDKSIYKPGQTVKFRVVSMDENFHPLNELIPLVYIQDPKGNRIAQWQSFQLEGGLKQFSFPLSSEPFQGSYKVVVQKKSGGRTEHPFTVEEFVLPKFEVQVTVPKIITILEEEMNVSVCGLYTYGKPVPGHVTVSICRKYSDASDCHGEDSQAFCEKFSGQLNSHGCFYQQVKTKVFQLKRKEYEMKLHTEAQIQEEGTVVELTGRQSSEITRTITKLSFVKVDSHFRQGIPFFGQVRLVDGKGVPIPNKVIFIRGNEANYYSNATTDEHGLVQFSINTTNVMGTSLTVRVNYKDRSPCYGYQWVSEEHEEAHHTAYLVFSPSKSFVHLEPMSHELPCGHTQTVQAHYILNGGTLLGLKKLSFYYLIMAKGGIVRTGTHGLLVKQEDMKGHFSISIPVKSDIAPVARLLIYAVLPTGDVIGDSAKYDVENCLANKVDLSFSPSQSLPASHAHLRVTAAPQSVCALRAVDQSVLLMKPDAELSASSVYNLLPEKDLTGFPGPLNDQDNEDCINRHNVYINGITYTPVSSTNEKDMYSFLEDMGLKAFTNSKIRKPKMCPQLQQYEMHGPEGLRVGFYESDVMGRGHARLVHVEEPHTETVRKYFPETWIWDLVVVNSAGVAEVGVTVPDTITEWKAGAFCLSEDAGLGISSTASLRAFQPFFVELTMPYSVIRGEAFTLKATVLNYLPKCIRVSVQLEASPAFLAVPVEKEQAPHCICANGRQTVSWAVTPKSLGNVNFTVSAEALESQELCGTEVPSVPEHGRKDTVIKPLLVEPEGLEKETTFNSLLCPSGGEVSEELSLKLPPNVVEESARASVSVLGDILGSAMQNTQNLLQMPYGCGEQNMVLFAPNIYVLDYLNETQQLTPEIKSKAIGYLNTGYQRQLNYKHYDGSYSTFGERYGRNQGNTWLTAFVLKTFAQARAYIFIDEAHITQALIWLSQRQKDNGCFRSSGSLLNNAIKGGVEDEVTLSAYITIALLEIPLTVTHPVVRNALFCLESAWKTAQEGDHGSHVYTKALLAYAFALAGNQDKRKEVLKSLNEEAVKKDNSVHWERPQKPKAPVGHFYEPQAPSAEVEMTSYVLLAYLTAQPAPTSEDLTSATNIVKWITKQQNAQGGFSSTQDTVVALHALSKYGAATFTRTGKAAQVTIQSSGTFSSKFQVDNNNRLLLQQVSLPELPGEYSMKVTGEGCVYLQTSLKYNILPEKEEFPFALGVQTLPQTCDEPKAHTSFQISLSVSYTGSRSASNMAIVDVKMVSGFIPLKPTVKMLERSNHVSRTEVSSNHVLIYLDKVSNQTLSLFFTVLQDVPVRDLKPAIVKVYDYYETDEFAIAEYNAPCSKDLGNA

[1] = target: T2, A2ML1 (α2-macroglobulin-like protein 1) (Homo sapiens, UniProt A8K2U0); assay: as above; assay type: biochemical; settings: covalent amide at thiol ester Gln-973; A2ML1 activated by chymotrypsin; 200 mM glycine, HBS pH 7.4, 37 °C
T2 construct: full-length recombinant, secreted by HEK293 Freestyle cells, no tag mentioned, purified by Zn IMAC, anion exchange and size exclusion; monomer; bait region cleaved by chymotrypsin in the assay
T2 sequence (A8K2U0 18-1454): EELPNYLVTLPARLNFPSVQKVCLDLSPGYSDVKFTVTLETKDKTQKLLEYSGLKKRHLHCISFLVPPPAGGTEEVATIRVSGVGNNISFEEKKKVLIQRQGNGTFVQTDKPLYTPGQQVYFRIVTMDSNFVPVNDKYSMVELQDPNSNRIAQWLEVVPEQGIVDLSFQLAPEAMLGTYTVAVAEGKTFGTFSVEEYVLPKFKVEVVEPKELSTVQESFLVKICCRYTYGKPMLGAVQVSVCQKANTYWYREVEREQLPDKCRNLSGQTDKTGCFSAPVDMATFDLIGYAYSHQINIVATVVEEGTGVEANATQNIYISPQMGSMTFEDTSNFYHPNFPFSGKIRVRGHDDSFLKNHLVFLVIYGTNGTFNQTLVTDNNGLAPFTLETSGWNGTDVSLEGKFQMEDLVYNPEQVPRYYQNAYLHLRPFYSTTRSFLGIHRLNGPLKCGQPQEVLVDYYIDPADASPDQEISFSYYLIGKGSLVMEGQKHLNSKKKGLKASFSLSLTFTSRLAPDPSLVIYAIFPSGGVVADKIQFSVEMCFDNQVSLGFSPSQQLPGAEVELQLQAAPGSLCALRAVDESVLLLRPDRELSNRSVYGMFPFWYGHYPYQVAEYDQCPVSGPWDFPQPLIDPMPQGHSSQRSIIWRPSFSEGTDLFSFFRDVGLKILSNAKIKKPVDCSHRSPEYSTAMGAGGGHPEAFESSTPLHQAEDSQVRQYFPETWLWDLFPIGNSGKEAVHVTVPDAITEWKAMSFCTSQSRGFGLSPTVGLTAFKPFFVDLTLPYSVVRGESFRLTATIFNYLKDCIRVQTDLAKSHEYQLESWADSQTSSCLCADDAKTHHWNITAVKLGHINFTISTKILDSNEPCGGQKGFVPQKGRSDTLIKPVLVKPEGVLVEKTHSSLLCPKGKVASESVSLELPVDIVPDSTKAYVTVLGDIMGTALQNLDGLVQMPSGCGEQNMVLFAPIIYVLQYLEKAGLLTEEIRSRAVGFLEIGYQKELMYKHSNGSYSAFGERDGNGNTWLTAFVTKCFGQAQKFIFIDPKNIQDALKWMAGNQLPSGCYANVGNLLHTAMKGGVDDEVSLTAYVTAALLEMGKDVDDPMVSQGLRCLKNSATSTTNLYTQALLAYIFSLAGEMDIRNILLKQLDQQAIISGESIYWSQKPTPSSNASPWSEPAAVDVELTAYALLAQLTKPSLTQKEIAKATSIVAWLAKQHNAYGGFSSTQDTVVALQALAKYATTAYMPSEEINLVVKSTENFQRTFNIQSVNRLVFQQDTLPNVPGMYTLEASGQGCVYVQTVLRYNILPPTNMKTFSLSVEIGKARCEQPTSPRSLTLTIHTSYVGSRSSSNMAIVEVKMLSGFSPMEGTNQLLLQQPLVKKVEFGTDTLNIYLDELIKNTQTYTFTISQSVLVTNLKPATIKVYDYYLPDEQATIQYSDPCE

[2] = target: Acetylated thermolysin (Geobacillus stearothermophilus) (UniProt P00800)
[3] = target: T3, Thermolysin from Geobacillus stearothermophilus, unmodified (Geobacillus stearothermophilus, UniProt P00800 233-548); assay: cell-based or functional assay
T3 sequence (looked up): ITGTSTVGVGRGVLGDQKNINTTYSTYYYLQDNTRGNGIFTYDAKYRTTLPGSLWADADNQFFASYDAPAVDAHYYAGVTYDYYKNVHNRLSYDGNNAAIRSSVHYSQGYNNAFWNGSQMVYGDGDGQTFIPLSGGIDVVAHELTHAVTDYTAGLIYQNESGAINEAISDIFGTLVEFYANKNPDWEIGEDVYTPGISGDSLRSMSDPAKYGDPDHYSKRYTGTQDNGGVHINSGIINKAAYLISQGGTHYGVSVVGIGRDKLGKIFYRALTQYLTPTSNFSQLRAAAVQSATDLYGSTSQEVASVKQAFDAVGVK

NCC(=O)O [glycine]
LC-MS/MS PRM of the pepsin-digested thiol ester peptide conjugate (A2M (α2-macroglobulin)): both A2Ms were able to conjugate glycine
LC-MS/MS PRM of the pepsin-digested thiol ester peptide conjugate [1]: both WT and H1084N A2ML1s reacted with the amine substrate glycine

B1: Human α2-macroglobulin-like protein 1 (A2ML1), recombinant wild type (natural protein, UniProt A8K2U0-1 18-1454, looked up)
chain: T2 sequence (A8K2U0 18-1454)
modifications: internal thiol ester in which Gln-973 participates
inhibition of acetylated thermolysin's cleavage of resorufin-labeled casein, pH 7.8; molar surplus of A2ML1 needed for full inhibition (fold molar surplus of A2ML1) [2]: 6
inhibition of thermolysin's cleavage of resorufin-labeled casein, pH 7.8; molar surplus of A2ML1 needed for full inhibition [3]: ~2 fold molar surplus of A2ML1
inhibition of thermolysin's cleavage of resorufin-labeled casein, reaction at pH 5; surplus of A2ML1 needed for full inhibition [3]: ~4 fold surplus of A2ML1

B2: A2ML1 H1084N mutant (natural protein, human, UniProt A8K2U0-1 18-1454, looked up)
chain: T2 sequence (A8K2U0 18-1454) with H1067N
modifications: internal thiol ester in which Gln-973 participates
inhibition of thermolysin's cleavage of resorufin-labeled casein, pH 7.8; molar surplus of A2ML1 needed for full inhibition [3]: ~2 fold molar surplus of A2ML1
inhibition of thermolysin's cleavage of resorufin-labeled casein, reaction at pH 5; surplus of A2ML1 needed for full inhibition [3]: ~4 fold surplus of A2ML1
